Data from publication PMC9413769.

Biological target: eGFP-Unr (UniProt O75534)
Assay: FRET or BRET

Chain of UniProt O75534 (O75534 whole entry): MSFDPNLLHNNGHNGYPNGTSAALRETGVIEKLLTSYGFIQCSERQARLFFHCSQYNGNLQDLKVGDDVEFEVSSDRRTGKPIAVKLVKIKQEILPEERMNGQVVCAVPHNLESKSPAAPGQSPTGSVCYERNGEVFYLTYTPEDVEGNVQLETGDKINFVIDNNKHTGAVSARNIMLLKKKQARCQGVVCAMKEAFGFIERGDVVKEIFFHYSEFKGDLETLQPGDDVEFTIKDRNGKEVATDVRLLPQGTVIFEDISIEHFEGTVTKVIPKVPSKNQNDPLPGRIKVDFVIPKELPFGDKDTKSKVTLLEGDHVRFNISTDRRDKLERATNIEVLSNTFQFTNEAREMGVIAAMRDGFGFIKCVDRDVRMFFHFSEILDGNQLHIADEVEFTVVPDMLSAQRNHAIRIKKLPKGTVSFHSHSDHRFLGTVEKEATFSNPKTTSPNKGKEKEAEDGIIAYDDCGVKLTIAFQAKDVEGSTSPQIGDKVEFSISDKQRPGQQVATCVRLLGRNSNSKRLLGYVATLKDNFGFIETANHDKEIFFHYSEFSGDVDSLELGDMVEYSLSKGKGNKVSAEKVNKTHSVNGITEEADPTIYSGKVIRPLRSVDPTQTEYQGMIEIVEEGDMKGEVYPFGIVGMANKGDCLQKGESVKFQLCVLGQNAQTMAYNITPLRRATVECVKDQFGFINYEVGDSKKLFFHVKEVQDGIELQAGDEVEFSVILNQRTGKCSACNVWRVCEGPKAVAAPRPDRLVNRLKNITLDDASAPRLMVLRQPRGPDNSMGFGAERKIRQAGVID

Substance	FRET efficiency (one-population analysis) [%]	FRET efficiency of the interacting population (two-population analysis) [%]	percent of eGFP-Unr interacting (two-population analysis) [%]	average FRET efficiency (one-population analysis) [%]
GagG2A-mCherry (natural protein)	7.5	46	25	
NCp7-mCherry (natural protein)		> 35	21	5.1
mCherry-NCp7 (natural protein)		> 35	26	6.8
